T1: Sla1-3, P32790
T1 sequence (P32790 344-424, looked up): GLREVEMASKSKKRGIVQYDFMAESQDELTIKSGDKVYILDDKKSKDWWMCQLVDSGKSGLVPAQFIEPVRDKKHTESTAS

T2: Lsb4, P32793
T2 sequence (P32793 402-468, looked up): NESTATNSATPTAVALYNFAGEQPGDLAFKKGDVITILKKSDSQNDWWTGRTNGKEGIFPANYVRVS

T3: Lsb3, P43603
T3 sequence (P43603 385-451, looked up): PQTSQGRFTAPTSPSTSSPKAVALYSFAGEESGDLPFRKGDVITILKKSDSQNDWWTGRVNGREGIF

T4: Boi1, P38041
T4 sequence (P38041 1-86, looked up): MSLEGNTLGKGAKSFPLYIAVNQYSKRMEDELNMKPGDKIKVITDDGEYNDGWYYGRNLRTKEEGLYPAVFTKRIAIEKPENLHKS

T5: Cyk3, Q07533
T5 sequence (Q07533 1-83, looked up): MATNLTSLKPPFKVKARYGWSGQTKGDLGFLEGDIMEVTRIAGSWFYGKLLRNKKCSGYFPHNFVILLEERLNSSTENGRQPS

T6: Nbp2, Q12163
T6 sequence (Q12163 103-180, looked up): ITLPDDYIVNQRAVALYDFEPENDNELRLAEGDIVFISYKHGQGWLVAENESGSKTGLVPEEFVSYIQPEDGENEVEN

T7: Pex13, P80667
T7 sequence (P80667 295-386, looked up): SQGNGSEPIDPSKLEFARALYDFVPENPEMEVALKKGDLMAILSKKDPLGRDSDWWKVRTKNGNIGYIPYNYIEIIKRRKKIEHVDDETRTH

T8: Bbc1, P47068
T8 sequence (P47068 1-78, looked up): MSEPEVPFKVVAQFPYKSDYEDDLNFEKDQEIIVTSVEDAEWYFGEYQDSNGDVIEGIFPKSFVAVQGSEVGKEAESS

T9: Pin3, Q06449
T9 sequence (Q06449 53-122, looked up): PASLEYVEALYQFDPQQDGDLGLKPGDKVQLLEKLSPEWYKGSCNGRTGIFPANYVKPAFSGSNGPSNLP

T10: Myo5, Q04439
T10 sequence (Q04439 1072-1160, looked up): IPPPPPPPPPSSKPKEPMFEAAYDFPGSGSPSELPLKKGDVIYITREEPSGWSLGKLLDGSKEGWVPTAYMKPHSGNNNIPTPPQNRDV

T11: Bud14, P27637
T11 sequence (P27637 247-328, looked up): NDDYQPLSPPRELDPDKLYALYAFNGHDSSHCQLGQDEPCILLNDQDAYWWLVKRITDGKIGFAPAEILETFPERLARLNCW

T12: Cdc25, P04821
T12 sequence (P04821 50-136, looked up): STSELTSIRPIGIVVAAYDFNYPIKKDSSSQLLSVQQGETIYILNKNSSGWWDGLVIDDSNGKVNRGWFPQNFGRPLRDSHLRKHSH

T13: Sla1-2, P32790
T13 sequence (P32790 60-140, looked up): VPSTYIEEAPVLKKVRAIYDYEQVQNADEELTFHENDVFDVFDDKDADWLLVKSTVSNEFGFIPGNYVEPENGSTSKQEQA

T14: Hof1, Q05080
T14 sequence (Q05080 590-669, looked up): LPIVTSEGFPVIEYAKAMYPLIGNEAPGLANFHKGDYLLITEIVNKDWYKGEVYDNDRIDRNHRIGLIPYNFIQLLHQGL

T15: Bzz1-2, P38822
T15 sequence (P38822 568-633, looked up): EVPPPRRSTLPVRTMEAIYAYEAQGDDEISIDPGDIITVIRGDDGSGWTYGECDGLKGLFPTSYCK

T16: Bzz1-1, P38822
T16 sequence (P38822 478-572, looked up): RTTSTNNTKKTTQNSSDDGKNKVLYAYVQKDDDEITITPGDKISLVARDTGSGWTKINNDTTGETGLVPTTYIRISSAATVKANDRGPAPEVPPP

T17: Boi2, P39969
T17 sequence (P39969 32-116, looked up): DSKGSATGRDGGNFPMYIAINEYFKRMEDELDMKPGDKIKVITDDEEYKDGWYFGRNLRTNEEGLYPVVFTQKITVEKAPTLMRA

T18: Fus1, P11710
T18 sequence (P11710 432-512, looked up): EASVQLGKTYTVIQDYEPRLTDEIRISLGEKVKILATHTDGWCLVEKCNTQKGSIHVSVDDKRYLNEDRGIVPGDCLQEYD

T19: Abp1, P15891
T19 sequence (P15891 535-592, looked up): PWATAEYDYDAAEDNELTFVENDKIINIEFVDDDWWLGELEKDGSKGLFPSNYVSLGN

T20: Hse1, P38753
T20 sequence (P38753 208-285, looked up): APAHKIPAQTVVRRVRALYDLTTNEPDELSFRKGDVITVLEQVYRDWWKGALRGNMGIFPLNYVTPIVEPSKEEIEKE

T21: Lsb1, P53281
T21 sequence (P53281 45-122, looked up): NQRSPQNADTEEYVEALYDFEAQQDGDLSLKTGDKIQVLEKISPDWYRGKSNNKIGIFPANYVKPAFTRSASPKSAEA

B1: unnamed (peptide)
chain: QQNRPLPQLPNRNNR
B2: unnamed (peptide)
chain: NPLPKEPRLPKRKVA
B3: unnamed (peptide)
chain: VATSTSPKLPPRGKQ
B4: unnamed (peptide)
chain: VQPTAAPATPPRHIS
B5: unnamed (peptide)
chain: GATNNAPTLPKRKNP
B6: unnamed (peptide)
chain: PALPSLPPPPLLNVD

Target: T1, Sla1-3, P32790
Assay: SPOT array
Details: median of control spots 5475

Binder	SPOT intensity
B1	10
B2	45
B3	13
B4	5
B5	1
B6	0

Target: T2, Lsb4, P32793
Assay: SPOT array
Details: median of control spots 397

Binder	SPOT intensity
B1	484
B2	288
B3	275
B4	251
B5	570
B6	0

Target: T3, Lsb3, P43603
Assay: SPOT array
Details: median of control spots 406

Binder	SPOT intensity
B1	484
B2	282
B3	695
B4	251
B5	425
B6	0

Target: T4, Boi1, P38041
Assay: SPOT array
Details: median of control spots 1162

Binder	SPOT intensity
B1	1
B2	4
B3	0
B4	0
B5	12
B6	0

Target: Bem1-1, P29366
Assay: SPOT array
Details: median of control spots 4282

Bem1-1, P29366, sequence (P29366 55-141): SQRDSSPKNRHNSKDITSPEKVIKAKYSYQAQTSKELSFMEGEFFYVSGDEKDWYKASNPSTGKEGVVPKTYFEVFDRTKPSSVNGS

Binder	SPOT intensity
B1	3
B2	0
B3	6
B4	2
B5	0
B6	0

Target: T5, Cyk3, Q07533
Assay: SPOT array
Details: median of control spots 1451

Binder	SPOT intensity
B1	0
B2	4
B3	1
B4	0
B5	0
B6	0

Target: T6, Nbp2, Q12163
Assay: SPOT array
Details: median of control spots 357

Binder	SPOT intensity
B1	0
B2	0
B3	0
B4	0
B5	0
B6	0

Target: Sho1, P40073
Assay: SPOT array
Details: median of control spots 1148

Sho1, P40073, sequence (P40073 287-367): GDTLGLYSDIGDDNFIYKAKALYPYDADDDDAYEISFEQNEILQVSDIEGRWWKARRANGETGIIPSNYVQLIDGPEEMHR

Binder	SPOT intensity
B1	1600
B2	107
B3	1
B4	0
B5	2
B6	83

Target: T7, Pex13, P80667
Assay: SPOT array
Details: median of control spots 1341

Binder	SPOT intensity
B1	589
B2	16
B3	87
B4	0
B5	27
B6	2

Target: T8, Bbc1, P47068
Assay: SPOT array
Details: median of control spots 796

Binder	SPOT intensity
B1	40
B2	221
B3	23
B4	2
B5	6
B6	0

Target: T9, Pin3, Q06449
Assay: SPOT array
Details: median of control spots 2171

Binder	SPOT intensity
B1	34
B2	10
B3	15
B4	0
B5	0
B6	0

Target: T10, Myo5, Q04439
Assay: SPOT array
Details: median of control spots 471

Binder	SPOT intensity
B1	0
B2	0
B3	0
B4	0
B5	0
B6	688

Target: GST
Assay: SPOT array
Details: median of control spots 978

Binder	SPOT intensity
B1	0
B2	2
B3	0
B4	0
B5	0
B6	0

Target: T11, Bud14, P27637
Assay: SPOT array
Details: median of control spots 956

Binder	SPOT intensity
B1	4
B2	26
B3	0
B4	0
B5	0
B6	1

Target: T12, Cdc25, P04821
Assay: SPOT array
Details: median of control spots 969

Binder	SPOT intensity
B1	2
B2	22
B3	0
B4	2
B5	1
B6	0

Target: Bem1-2, P29366
Assay: SPOT array
Details: median of control spots 4347

Bem1-2, P29366, sequence (P29366 139-227): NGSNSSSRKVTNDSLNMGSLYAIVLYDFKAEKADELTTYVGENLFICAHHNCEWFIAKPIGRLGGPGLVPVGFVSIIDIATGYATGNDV

Binder	SPOT intensity
B1	1
B2	1
B3	0
B4	0
B5	9
B6	0

Target: Myo3, P36006
Assay: SPOT array
Details: median of control spots 468

Binder	SPOT intensity
B1	0
B2	7
B3	0
B4	0
B5	0
B6	598

Target: T13, Sla1-2, P32790
Assay: SPOT array
Details: median of control spots 712

Binder	SPOT intensity
B1	0
B2	2
B3	0
B4	0
B5	92
B6	0

Target: T14, Hof1, Q05080
Assay: SPOT array
Details: median of control spots 4086

Binder	SPOT intensity
B1	112
B2	5
B3	2
B4	0
B5	0
B6	6720

Target: T15, Bzz1-2, P38822
Assay: SPOT array
Details: median of control spots 4538

Binder	SPOT intensity
B1	0
B2	29
B3	0
B4	0
B5	0
B6	0

Target: Rvs167, P39743
Assay: SPOT array
Details: median of control spots 2707

Rvs167, P39743, sequence (P39743 419-482): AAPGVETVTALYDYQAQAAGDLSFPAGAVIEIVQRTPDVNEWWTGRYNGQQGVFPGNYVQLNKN

Binder	SPOT intensity
B1	1310
B2	200
B3	4100
B4	12
B5	2550
B6	0

Target: T16, Bzz1-1, P38822
Assay: SPOT array
Details: median of control spots 4446

Binder	SPOT intensity
B1	4
B2	6
B3	2
B4	0
B5	0
B6	2

Target: T17, Boi2, P39969
Assay: SPOT array
Details: median of control spots 1161

Binder	SPOT intensity
B1	1
B2	2
B3	1
B4	0
B5	58
B6	0

Target: T18, Fus1, P11710
Assay: SPOT array
Details: median of control spots 1200

Binder	SPOT intensity
B1	2
B2	2
B3	0
B4	13
B5	2
B6	0

Target: T19, Abp1, P15891
Assay: SPOT array
Details: median of control spots 935

Binder	SPOT intensity
B1	228
B2	131
B3	23
B4	0
B5	36
B6	0

Target: T20, Hse1, P38753
Assay: SPOT array
Details: median of control spots 1727

Binder	SPOT intensity
B1	23
B2	191
B3	0
B4	0
B5	1
B6	0

Target: T21, Lsb1, P53281
Assay: SPOT array
Details: median of control spots 388

Binder	SPOT intensity
B1	176
B2	19
B3	561
B4	45
B5	64
B6	0
